Patent publication US11992557B2, “Collagenase loaded liposomes for enhancing drug delivery” (TECHNION RESEARCH & DEVELOPMENT FOUNDATION LIMITED, priority 2018, dated 2024)

Experiments:
[1] = tested on: human pterygium transplanted to their eyes; assay: Free collagenase I injection to the conjunctiva of mice with transplanted human pterygium; format: in vivo; conditions: 10 mg/ml by injection to the conjunctiva
Description: Pterygium is known to comprise four types of collagen: types I, II, III and IV. The stroma of pterygium and normal conjunctival tissue contains collagen types I, II, and […]. To test the ability of collagenase to break up and treat pterygium, mice that had human pterygium transplanted to their eyes were administered 10 mg/ml free collagenase I by injection to the conjunctiva.

[2] = tested on: fluorescein conjugated gelatin substrate
Description: Collagenase activity assay. Collagenase type-I activity was determined using gelatin with fluorescein conjugate as a substrate (ThermoFisher). Collagenase (100 μl) was mixed with 80 μl of reaction buffer (0.05M Tris-HCl, 0.15M NaCl, 5 mM CaCl2, 0.2 mM sodium azide at pH 7.6) and 20 μl of 0.125 mg/ml gelatin diluted in PBS. The fluorescent intensity was measured every 15 seconds over a period of 3 minutes at 485 nm and 530 nm (excitation/emission) using an Infinite 200PRO. Collagenase activity was measured at 37° C., where plasma or PBS served as control.
To test the collagenase activity, liposomal collagenase after dialysis or free collagenase in phosphate buffered saline at a concentration of 5 ug/ml, were incubated at 37° C. Every hour, a collagenase sample was assessed for its capacity to cleave a fluorescein conjugated gelatin substrate (Thermo Fisher). Activity of the released collagenase was determined in accordance to the change in fluorescence over 3 minutes, relative to the fluorescence at t=0.
In order to quantify the protective nature of liposome encapsulation versus free collagenase, both free enzyme and encapsulated enzyme were incubated in PBS or serum and protein activity was measured by Enzcheck Assay at 0, 1, 6 and 24 hours.

PDAC collagen = assay: Collagen analysis after ex-vivo collagenase treatment of pancreatic tumor slices; design: species or system mice; conditions: PDAC treated with 0.05-0.2 mg/ml collagenase ex-vivo, Masson's trichrome
Description: Collagen analysis after the collagenase treatment. Pancreatic tumors were harvested from tumor bearing mice, six weeks after the initiation of the tumor model. Each tumor was sliced horizontally to 1 cm thick slices. All the extracted slices were mixed and randomly chosen for different treatments groups. Treatments included incubation in DMEM medium (Sigma-Aldrich) with collagenase type-I (Sigma-Aldrich) at increasing concentrations: 0.05, 0.1 or 0.2 mg/ml for either 8 or 24 hours. Following the enzymatic treatment, the tumor slices were sectioned, fixated in 10% formalin (Sigma-Aldrich) and stained with Masson's trichrome. Computerized morphometry was utilized to quantitate the fraction of the fibrotic area out of the total area of the tumor in each sample. Computerized morphometry of the collagen was used to determine fibrosis fraction within each sample. Masson's trichrome staining was performed to identify the pancreatic fibrosis. Then, stained slides were entirely scanned at magnification of X20 using the Panoramic MIDI automatic digital slide scanner (3DHistech, Budapest, Hungary). The whole slide was analyzed in Image Pro Premier 9.2 software (Media Cybernetics, MD, USA). Fibrosis area was calculated according to the blue staining within the tissue, and the tissue area was calculated by choosing the whole tissue with the machine ‘color picker tool’.

[3] = tested on: fluorescein conjugated gelatin; assay: Collagenase activity test in various conditions (temperature, ethanol, pH, extrusion pressure); format: biochemical
Description: Collagenase activity assay. Collagenase activity was assessed using fluorescein conjugated gelatin (ThermoFisher) as a substrate. The enzyme solution was added to the substrate solution together with a reaction buffer (0.5 M Tris-HCl, 1.5 M NaCl, 50 mM CaCl2, 2 mM sodium azide, pH 7.6). Fluorescence intensity for every sample was measured every 15 seconds for 3 minutes with excitation set at 485 nm and emission at 530 nm using the Infinite 200 PRO multimode reader (TECAN, Mannedorf, Switzerland). A linear incline was determined, and collagenase concentration was calculated using a calibration curve generated by collagenase samples of known concentrations.
Having established that collagenase's activity drops rapidly at 37 degrees (FIG. 7B), other parameters during liposome production that might affect the protein's integrity and function were examined.
Lastly, the activity of free collagenase at various pH was assayed.

Wistar rats = conditions: rat, in vivo
Description: All rats were anesthetized in two stages. In the first stage the rats were anesthetized with isoflurane. In the second stage each rat was injected a mixture of Ketamine and Xylazine intraperitoneally. After each procedure, the rats were transferred and kept in an incubator, with constant oxygen flow, until they reached full recovery.
An ordinary orthodontic Ni—Ti closed coil spring (9 mm closed coil spring nickel and titanium alloy that has 2 eyelets with an inner radius of 0.76 mm) was used to connect the 1st molar in the upper pallet to the front upper incisors of the rat. The Ni—Ti coil spring was glued to the tooth (3M UNITEK), which generates constant force of 200 grams (1.96 N) when extended between 12-24 mm. The force applied in the oral cavity was the same on all the rats that participated in the experiment. […] The procedure of installing the Ni—Ti coil closed spring was performed using human orthodontics equipment and materials. The 1st upper molar and the upper incisors were dried and cleaned using cotton swabs to remove any debris that accumulates. […]
Collagenase-liposomes (see above Liposome Preparation), or a similar concentration of free collagenase, were applied directly to the sulcus. […] The distance between the eyelet of the Ni—Ti closed coil on the first molar and the back of the upper incisors was measured and recorded using the digital caliper. […]

fibroblasts = assay: Fibroblast adherence to collagen fibers during collagenase treatment; format: cell-based; conditions: during collagenase treatment of the fiber
Description: Fibroblast adherence to collagen fibers. The fibroblast morphological change was recorded using The LSM 710-laser scanning confocal microscope (Zeiss) over a period of 90 minutes. The fibroblasts nuclei were stained using Hoechst 33342 (Thermo Fisher Scientific, MA, USA). The Hoechast 16.23 mM stock solution was diluted 1:2000 in Dulbecco's Phosphate Buffer Saline (DPBS, Sigma-Aldrich, St. Louis, USA) and the collagen fiber buffer was removed. 3 ul of the diluted solution was added, followed by 10 minutes light protected incubation. The staining solution was removed, and the fiber was washed 3 times in PBS.

Collagen type-I bundles = assay: Stress/strength profile of collagen fibers exposed to proteolytic enzymes; format: biochemical, Wistar rats
Description: Stress/strength profile of collagen fibers exposed to collagenase: Collagen type-I bundles, sourced from the tails of Wistar rats, were suspended using a LLOYD LF-Plus Digital Material Tester force machine. The bundles were suspended inside a bath loaded with a buffer that simulates the composition of the oral fluid: an isotonic solution, pH 6.7 at 37° C. complemented with electrolytes including sodium, potassium, calcium, magnesium, bicarbonate, and phosphates. The bundles, 0.8-1.2 mm in diameter, were cut into two equal 4-cm sections, acting as an internal control. Collagenase type-I from Clostridium histolyticum (Sigma-Aldrich) was added at different concentrations and the stress/strength profile of the collagen fibers was recorded as a function of the collagenase treatment. The Ultimate Tensile Strength (UTS) of the collagen bundle was determined for each collagenase concentration.
Collagen regeneration SEM. Collagen bundles were mounted on carbon tape and imaged using a Zeiss UltraPlus high-resolution scanning electron microscope (HR-SEM) equipped with an Everhart-Thornley secondary electron detector. Each bundle was then cut in half. The untreated half acted as an internal control for each treated bundle. All data points are the mean of 14-20 experimental points. Collagen fibers were exposed to 0.05 mg/ml collagenase for 8 hours. Ethylenediaminetetraacetic acid (EDTA; ST. Louis, USA), 3 mM along with two drops of NH4Cl 1M buffer, were added for 30 minutes in order to retard the enzyme's activity. Subsequently, the media was removed, and the treated bundles were washed two times with new growth media to allow bundle regeneration.
Collagen fibers regain their initial mechanical strength post nano-surgery. Collagen fibers were sourced from tails of Wistar rats. Each bundle was cut in half. The untreated half acted as an internal control for each treated bundle. All presented data points are the mean of 14-20 experimental points. Collagen fibers were exposed to collagenase at concentration of 0.05 mg/ml for 8 hours in order to weaken the bundles. […] Subsequently, the media was removed, and the treated bundles were washed twice with new growth media.
Two plant-based proteolytic enzymes were also tested for their ability to relax collagen: bromelain and papain. These plant-based enzymes are not specific to collagen but have been reported to act on collagen fibers. Collagens fiber strength was tested with a force machine in the presence of 1 mg/ml collagenase, bromelain or papain. The force required to break a bundle of fibers with no treatment was set to 1, and the force required to break the treated fiber bundles was standardized to this force. […] At this same time point bromelain and papain reduced the strength of the collagen fibers such that less than 70% of the control force was needed to rupture the fibers. […] Thus, both papain and bromelain served as effective collagen relaxing enzymes, though much weaker ones than […].

pancreatic tumors = assay: Penetrance of gold nanoparticles after pretreatment of PDAC mice; conditions: mouse, in vivo
Description: In order to quantify the extent to which encapsulation of collagenase in liposomes improved drug penetrance over free collagenase, PDAC mice were pretreated (intravenous injection twice, 24 hours apart) with empty liposomes, free collagenase or liposome encapsulated collagenase and then 24 hours later gold nanoparticles of various sizes. Specifically, 5, 20, and 100 nm gold nanoparticles were injected and gold penetrance to various organs was monitored 24 hours later. Liposome encapsulated collagenase increased the penetrance of 100 nm (FIG. 6B) and 20 nm (FIG. 6C) gold particles into pancreatic tumors as compared to free collagenase and empty liposomes. […] The experiment was repeated, and more organs/bodily fluids were examined, but similar results were obtained (FIG. 6E-G).

PDAC tumors = assay: Effect of the collagenase treatment on pancreatic uptake of Gd-/iodine-liposomes; format: in vivo, C57BL/6 mice; conditions: PDAC mice, Gd-liposomes after pretreatment
Description: Control groups included injections of empty liposomes (n=10 mice), free collagenase (n=5 mice) or no injection at all (n=3 mice) instead of collagenase encapsulating liposomes. […] 24 hours later, the animals were euthanized, and their organs were harvested. The amount of Gadolinium in each organ was analyzed using elemental analysis (ICP-EOS, Agilent) at wavelengths of 335.048 and 342.246 nm. The organs were harvested, weighed and then burnt at 550° C. overnight. The burnt organs were dissolved in 5 ml of 1% nitric-acid and filtered using […] filters (Millipore Millex-GV, Merck, Darmstadt, Germany). The Gd concentration in the organs was measured using an ICP-EOS elemental analysis.
Micro-CT scan. Mice were imaged using an IVIS Spectrum CT Pre-clinical in-vivo imaging system (PerkinElmer, MA, USA) with the following parameters: CT was set to 50 ms, total projections were 720, voltage was set to 50 kV while the current to 1 mA the binning was determined to 2 and the X-ray filter was set to 440 A1. Hounsfield calibration was performed in air-0.004168 and water-0.5513. Two groups of tumors bearing mice (n=5 each) were divided to control and test group. The mice were weighed weekly and tumor progression was monitored by weekly IVIS scans (PerkinElmer). […] Tumor dimensions were assessed using the ROI tool in the IVIS imaging software (Living Image, PerkinElmer).

half-life of collagenase once activated [2]: several hours
level of fibrotic tissue (PDAC collagen): 1.28±0.3%
force needed to rupture the fibers, standardized to control force (Collagen type-I bundles; 1 mg/ml, 4 hours of treatment): almost no force
time to degrade the collagen fibers (Collagen type-I bundles; 0.5 and 1 mg/mL collagenase): less than 10 hours
initial strength profile regained by collagen fibers (Collagen type-I bundles; after the collagenase activity was retarded (16 h)): ~90%
decrease of collagen fiber strength (Collagen type-I bundles; therapeutic dose of collagenase (0.05 mg/ml, 8 h)): approximately 50%
Substance: collagenase
effect on the eye [1]: general breakdown of the eye, with extreme inflammation and damage seen throughout the eye
activity of free collagenase at various pH [3]: Basic pH was found to result in improved collagenase activity
activity of free enzyme versus temperature ([3]; 50 degrees or greater): completely abrogated protein function
activity of free enzyme in ethanol ([3]; as little as 20% ethanol): completely abrogated protein function
protein activity versus ethanol during liposome production ([3]; ethanol procedure): Inclusion of any amount of ethanol was also found to denature the protein and reduce its activity
protein activity versus extrusion force ([3]; ethanol procedure): a force above 10 bar during extrusion was found to have a negative effect on protein activity
protein activity versus temperature during liposome production ([3]; ethanol procedure): temperatures above 25 began reducing protein activity
inflammation of the gingival tissue (histology) (Wistar rats): mild inflammation
fibroblast detachment and viability (fibroblasts): fibroblast viability was retained
therapeutic window: fibers relaxed but not fully degraded (Collagen type-I bundles; oral physiological conditions): 0.05 to 0.1 mg/mL
penetrance of 5 nm particles into tumors (pancreatic tumors): decreased penetrance
pancreatic uptake by elemental analysis of Gd (PDAC tumors): 15.1 μg-Gd/g-pancreas
